In article PMC3985386:

Assays:
[1] = molecular target: Glutathiolated H-Ras^1-166 (Ras^SSG) (human) (UniProt P01112)
[2] = molecular target: Truncated human H-ras (H-Ras^1-166), wild type (human) (UniProt P01112)

rate of MANT-GDP dissociation from 1 uM Ras with SOS^cat at a 1:1 ratio, 25°C [1]: 0.00185 s⁻¹ | rate of MANT-GDP dissociation from 1 uM Ras with SOS^cat at a 1:1 ratio, 25°C [2]: 0.00202 s⁻¹
Substance: Minimal catalytic domain of Son of Sevenless (SOS^cat) (domain or fragment)
